Results as given in patent publication US20250320286A1.

Molecular target: 4U-3pE-beta-Amyloid
Test: SPR; 4U-3pE-beta-Amyloid 0.6 to 4.5 nM

Kd: 0.0379 nM | koff: 0.000156 s⁻¹ | kon: 4.11e+06 M⁻¹ s⁻¹
Substance: Control mAb (antibody)
